Data as given in PMC9482650, “Quantitative fragmentomics allow affinity mapping of interactomes” (Nature Communications, 2022).

What was measured:
Assay in all cases: holdup assay
Parameters in all cases: key: below the threshold = too weak to quantify, mostly under pKd 3.1 to 4
[1] = molecular target: CASK, O14936
[2] = molecular target: GRID2IP_1, A4D2P6
[3] = molecular target: T1, MPDZ_12, O75970
T1 sequence (O75970 1857-1958, limits assumed, looked up): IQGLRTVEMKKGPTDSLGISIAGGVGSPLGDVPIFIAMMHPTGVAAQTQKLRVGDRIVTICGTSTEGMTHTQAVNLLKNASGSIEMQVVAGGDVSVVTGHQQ

[4] = molecular target: MAGI2_5, Q86UL8
MAGI2_5, Q86UL8, sequence (Q86UL8 915-1017): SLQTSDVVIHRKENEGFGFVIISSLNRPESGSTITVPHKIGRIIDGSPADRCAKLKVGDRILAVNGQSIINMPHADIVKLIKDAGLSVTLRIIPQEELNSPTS

[5] = molecular target: Inadl_6, Q8NI35
Inadl_6, Q8NI35, sequence (Q8NI35 1058-1167): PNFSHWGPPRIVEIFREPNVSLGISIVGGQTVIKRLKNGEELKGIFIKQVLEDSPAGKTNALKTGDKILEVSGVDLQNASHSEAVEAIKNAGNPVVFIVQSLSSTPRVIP

[6] = molecular target: GRID2IP_2, A4D2P6
GRID2IP_2, A4D2P6, sequence (A4D2P6 272-370): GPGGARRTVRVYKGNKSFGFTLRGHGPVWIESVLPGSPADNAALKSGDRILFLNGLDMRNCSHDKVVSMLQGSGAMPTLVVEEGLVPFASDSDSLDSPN

[7] = molecular target: T2, GRIP1_7, Q9Y3R0
T2 sequence (Q9Y3R0 999-1096, limits assumed, looked up): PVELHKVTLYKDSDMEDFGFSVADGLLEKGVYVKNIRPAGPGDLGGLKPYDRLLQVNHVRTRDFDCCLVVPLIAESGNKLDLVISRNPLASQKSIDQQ

[8] = molecular target: T3, RADIL, Q96JH8
T3 sequence (Q96JH8 971-1071, limits assumed, looked up): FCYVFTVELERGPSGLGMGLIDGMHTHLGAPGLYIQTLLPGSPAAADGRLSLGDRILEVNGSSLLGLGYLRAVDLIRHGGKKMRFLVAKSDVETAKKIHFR

[9] = molecular target: ARHGEF12, Q9NZN5-2
ARHGEF12, Q9NZN5-2, sequence (Q9NZN5 other isoform, or with tags, fused parts or gaps): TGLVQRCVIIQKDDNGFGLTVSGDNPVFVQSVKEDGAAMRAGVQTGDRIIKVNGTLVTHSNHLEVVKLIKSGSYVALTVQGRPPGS

[10] = molecular target: Inadl_9, Q8NI35
Inadl_9, Q8NI35, sequence (Q8NI35 1530-1615): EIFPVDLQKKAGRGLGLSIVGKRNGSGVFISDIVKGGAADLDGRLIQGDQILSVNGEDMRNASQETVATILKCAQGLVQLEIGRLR

[11] = molecular target: T4, APBA2_2, Q99767
T4 sequence (Q99767 654-744, limits assumed, looked up): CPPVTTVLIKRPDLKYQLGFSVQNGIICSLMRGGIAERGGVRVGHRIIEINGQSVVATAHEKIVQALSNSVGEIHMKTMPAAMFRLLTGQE

[12] = molecular target: MAGI1_1, Q96QZ7
MAGI1_1, Q96QZ7, sequence (Q96QZ7 1-106): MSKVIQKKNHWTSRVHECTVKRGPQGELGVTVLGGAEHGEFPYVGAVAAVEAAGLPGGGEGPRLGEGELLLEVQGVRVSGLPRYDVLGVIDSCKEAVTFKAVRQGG

[13] = molecular target: T5, DFNB31_1, Q9P202
T5 sequence (Q9P202 135-233, limits assumed, looked up): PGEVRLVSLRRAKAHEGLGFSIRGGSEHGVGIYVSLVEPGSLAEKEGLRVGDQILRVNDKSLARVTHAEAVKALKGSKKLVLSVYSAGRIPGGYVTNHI

[14] = molecular target: LIMK2, P53671
LIMK2, P53671, sequence (P53671 143-248): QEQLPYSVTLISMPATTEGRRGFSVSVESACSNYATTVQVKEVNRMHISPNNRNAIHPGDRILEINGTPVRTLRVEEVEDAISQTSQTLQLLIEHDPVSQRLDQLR

[15] = molecular target: T6, NHERF3_3, Q5T2W1
T6 sequence (Q5T2W1 238-333, limits assumed, looked up): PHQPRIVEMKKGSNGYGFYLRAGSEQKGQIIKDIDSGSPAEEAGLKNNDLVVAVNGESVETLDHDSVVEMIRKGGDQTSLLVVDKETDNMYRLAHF

[16] = molecular target: GRIP2_4, Q9C0E4
GRIP2_4, Q9C0E4, sequence (Q9C0E4 446-548): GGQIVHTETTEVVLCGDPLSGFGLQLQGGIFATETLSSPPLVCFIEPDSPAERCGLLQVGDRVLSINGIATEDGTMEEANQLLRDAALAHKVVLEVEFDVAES

[17] = molecular target: T7, GRIP1_2, Q9Y3R0
T7 sequence (Q9Y3R0 145-248, limits assumed, looked up): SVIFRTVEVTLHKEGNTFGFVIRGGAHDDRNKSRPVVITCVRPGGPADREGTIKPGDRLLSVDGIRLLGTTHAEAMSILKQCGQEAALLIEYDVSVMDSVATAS

[18] = molecular target: NHERF4_4, Q86UT5
NHERF4_4, Q86UT5, sequence (Q86UT5 464-550): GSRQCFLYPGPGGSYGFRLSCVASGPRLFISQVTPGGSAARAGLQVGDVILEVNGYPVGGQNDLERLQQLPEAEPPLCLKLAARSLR

[19] = molecular target: FRMPD2_2, Q68DX3
FRMPD2_2, Q68DX3, sequence (Q68DX3 944-1038): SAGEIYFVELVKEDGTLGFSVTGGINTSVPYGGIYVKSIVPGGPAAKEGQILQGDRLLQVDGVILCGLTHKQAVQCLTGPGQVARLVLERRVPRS

[20] = molecular target: T8, SIPA1L2, Q9P2F8
T8 sequence (Q9P2F8 945-1036, limits assumed, looked up): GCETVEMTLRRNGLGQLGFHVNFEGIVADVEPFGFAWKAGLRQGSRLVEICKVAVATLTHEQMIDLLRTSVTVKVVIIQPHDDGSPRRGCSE

[21] = molecular target: T9, GRIP1_3, Q9Y3R0
T9 sequence (Q9Y3R0 247-346, limits assumed, looked up): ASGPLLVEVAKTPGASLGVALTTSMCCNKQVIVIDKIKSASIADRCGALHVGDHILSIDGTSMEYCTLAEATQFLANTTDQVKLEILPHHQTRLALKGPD

[22] = molecular target: MAGI2_2, Q86UL8
MAGI2_2, Q86UL8, sequence (Q86UL8 410-522): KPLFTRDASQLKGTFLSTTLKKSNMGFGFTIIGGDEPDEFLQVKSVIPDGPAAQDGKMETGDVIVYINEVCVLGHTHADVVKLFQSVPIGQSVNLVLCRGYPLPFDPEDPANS

[23] = molecular target: PDLIM1, O00151
PDLIM1, O00151, sequence (O00151 1-87): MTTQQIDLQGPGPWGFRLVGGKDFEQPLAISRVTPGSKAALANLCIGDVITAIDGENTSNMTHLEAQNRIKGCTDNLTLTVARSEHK

[24] = molecular target: T10, CARD11, Q9BXL7
T10 sequence (Q9BXL7 662-765, limits assumed, looked up): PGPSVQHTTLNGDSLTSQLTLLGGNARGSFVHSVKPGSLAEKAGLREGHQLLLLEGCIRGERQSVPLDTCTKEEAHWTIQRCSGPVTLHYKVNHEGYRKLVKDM

[25] = molecular target: IL16_1, Q14005
IL16_1, Q14005, sequence (Q14005 210-306): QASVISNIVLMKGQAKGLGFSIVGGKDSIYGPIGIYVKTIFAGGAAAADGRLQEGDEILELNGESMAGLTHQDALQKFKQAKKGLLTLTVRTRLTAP

[26] = molecular target: LNX1_2, Q8TBB1
LNX1_2, Q8TBB1, sequence (Q8TBB1 371-470): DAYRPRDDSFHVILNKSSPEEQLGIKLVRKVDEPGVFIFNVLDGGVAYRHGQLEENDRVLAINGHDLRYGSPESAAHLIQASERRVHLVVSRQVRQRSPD

[27] = molecular target: T11, LNX2_3, Q8N448
T11 sequence (Q8N448 463-564, limits assumed, looked up): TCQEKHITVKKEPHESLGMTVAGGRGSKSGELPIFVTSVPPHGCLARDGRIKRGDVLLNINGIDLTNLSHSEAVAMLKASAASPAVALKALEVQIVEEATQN

[28] = plain residues with an end cap or a label only (N-terminal biotin on a linker: ahx)
[29] = plain residues with an end cap or a label only (N-terminal biotin on a linker: ado-ado)
[30] = plain residues with an end cap or a label only (N-terminal biotin on a linker: ttds)

Measured: pKd

CASK, O14936, sequence (O14936 487-570): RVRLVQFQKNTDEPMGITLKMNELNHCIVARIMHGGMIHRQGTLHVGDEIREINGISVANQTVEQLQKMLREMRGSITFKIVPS
GRID2IP_1, A4D2P6, sequence (A4D2P6 1-87): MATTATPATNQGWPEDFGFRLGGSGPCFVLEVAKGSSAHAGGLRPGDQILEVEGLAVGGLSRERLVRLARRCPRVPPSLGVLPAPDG

NRKREIFSNF [NHERF2, Q15599]
below the threshold: [1]; [28] | [2]; [28] | [3]; [28] | [4]; [28] | [5]; [28] | [6]; [28] | [7]; [28] | [8]; [28] | [9]; [28] | [10]; [28] | [11]; [28] | [12]; [28] | [13]; [28] | [14]; [28] | [15]; [28] | [16]; [28] | [17]; [28] | [18]; [28] | [19]; [28] | [20]; [28] | [21]; [28] | [22]; [28] | [23]; [28] | [24]; [28] | [25]; [28] | [26]; [28] | [27]; [28]

PLSPEQPTKL [TRIM50, Q86XT4]
below the threshold: [1]; [29] | [2]; [29] | [3]; [29] | [4]; [29] | [5]; [29] | [6]; [29] | [7]; [29] | [8]; [29] | [9]; [29] | [10]; [29] | [11]; [29] | [12]; [29] | [13]; [29] | [14]; [29] | [15]; [29] | [16]; [29] | [17]; [29] | [18]; [29] | [19]; [29] | [20]; [29] | [21]; [29] | [22]; [29] | [23]; [29] | [24]; [29] | [25]; [29] | [26]; [29] | [27]; [29]

EVVHTPETSV [SLC16A3, O15427]
4.5: [19]; [30]
below the threshold: [1]; [30] | [2]; [30] | [3]; [30] | [4]; [30] | [5]; [30] | [6]; [30] | [8]; [30] | [10]; [30] | [11]; [30] | [12]; [30] | [14]; [30] | [15]; [30] | [16]; [30] | [17]; [30] | [18]; [30] | [20]; [30] | [21]; [30] | [22]; [30] | [23]; [30] | [24]; [30] | [26]; [30] | [27]; [30]
3.86: [13]; [30]
3.79: [7]; [30]
3.6: [25]; [30]
3.89: [9]; [30]

HNAFLSVTTV [PDZRN4, Q6ZMN7]
below the threshold: [1]; [28] | [2]; [28] | [3]; [28] | [4]; [28] | [5]; [28] | [6]; [28] | [7]; [28] | [9]; [28] | [10]; [28] | [11]; [28] | [12]; [28] | [13]; [28] | [14]; [28] | [15]; [28] | [16]; [28] | [17]; [28] | [18]; [28] | [19]; [28] | [20]; [28] | [21]; [28] | [23]; [28] | [24]; [28] | [25]; [28] | [27]; [28]
3.54: [22]; [28]
3.61: [8]; [28]
3.65: [26]; [28]

RRRKRKRTYL [HPV49-L2, P36762]
4.18: [15]; [28]
5.11: [6]; [28]
4.68: [9]; [28]
below the threshold: [1]; [28] | [2]; [28] | [3]; [28] | [4]; [28] | [5]; [28] | [8]; [28] | [10]; [28] | [11]; [28] | [12]; [28] | [14]; [28] | [17]; [28] | [19]; [28] | [20]; [28] | [21]; [28] | [24]; [28] | [25]; [28] | [26]; [28] | [27]; [28]
3.52: [23]; [28]
3.58: [13]; [28]
5.33: [22]; [28]
3.54: [7]; [28]
3.53: [18]; [28]
4.37: [16]; [28]
